Data published in patent publication US20130263297A1, “METHODS OF TREATING CANCER” (Cedars-Sinai Medical Center, priority 2010, published 2013).
Entries after “also recorded” stand apart in the source; their conditions may differ.

Legend:
Assay type in all cases: cell-based, human
[1] = tested on: cMyc site within the RANKL promoter in LNCaP cells; assay: ChIP analysis (quantitative real-time PCR) of cMyc binding to the RANKL promoter
[2] = tested on: ARCaPE and ARCaPM cells; assay: EMT marker / RANKL expression by RT-PCR and Western blot and morphology, ARCaP model; parameters: N-cadherin expression in ARCaPE cells (Example 9) / E-cadherin expression in ARCaPE cells (Example 9) / Snail expression in ARCaPE cells (Example 9) / vimentin expression in ARCaPE cells (Example 9): dose or concentration left out as unconfirmed
Method: 4×10^5 ARCaP and PC3 cells were seeded into a 6-well plate and cultured for 48 hrs until they grow to 90% confluence. The RANKL siRNA (50 pmole) and siRNA control (50 pmole) and lipofetamine (2.5 ul) were mixed with 250 ul of OPTI-medium without any FBS, respectively and incubated at RT for 5 minutes. The DNA and lipofetamine were then mixed together and incubated for 20 minutes before adding to the cells in each well. The medium was changed to normal 5% T-medium after 6 h incubation. The cells were incubated at 37° C. for two days before harvesting.
Total of 30 ug of proteins per well from both ARCaPE and ARCaPM cells were run on a Tris-Bis 4-12% gradient polyacrylamide gel (Invitrogen) one and half hours at 150 Volts. The proteins on the gel were then transferred to PVDF membranes using Hoefer semi-dry system. The membranes were incubated with 5% skim milk in PBST (Blocking solution) for 20 min to block non-specific antibody labeling. The RANKL primary antibody was diluted with blocking solution (1:200 and 1:500) and incubated with the membrane for one hour at RT on a rocker or overnight at 4° C. The membrane was washed with PBST (PBS+0.01% TWEEN) three times for a minimum of 5 min each. Secondary rabbit anti-goat antibodies were incubated with the membrane for one hour at RT on a rocker. The membrane was again washed with PBST three times for 5 min each. Chemiluminescent substrate (Western Lightning) was evenly added across the top surface of the membrane, and the membrane was exposed to X-ray films for 30 seconds to 2 minutes depending on the strength of the signals and then developed according to the manufacturer's instructions.
For each reaction, a 50 μl PCR reaction mix containing 5 μl of 10×PCR buffer, 1.5 ul of 50 mM MgCl2, 1 ul of 10 mM dNTP, 1 ul of each forward and reverse primers (RANKL F: […] (SEQ ID NO:1) and RANKL R: […] (SEQ ID NO:2); GAPDH as the positive control), 3 ul cDNA, 37 ul double distilled water, and 0.5 μl of Taq polymerase (Invitrogen) was made. The reaction was first activated at 94° C. for 2 min and run for 36 cycles of 94° C. (30 sec-melting), 60° C. (30 sec-annealing), and 72° C. (60 sec-extension), and lastly incubated at 72° C. for 5 min to amplify the cDNA. A 1% gel electrophoresis was run with 5 μl of 100 by DNA ladder and 10 μl of amplified cDNA of each sample to check the size of the cDNA and also whether it was successfully synthesized under UV light. […]
ARCaPE or ARCaPM cells were seeded into 6-well plate and transiently transfected with flag-tagged RANKL or neo plasmid DNA under the regulation by CMV-promoter, or RANKL siRNA (Santa Cruz Biotechnology, Inc., Santa Cruz, Calif.) with an universal scramble siRNA which serves as the control (Invitrogen, Carlsbad, Calif.). After 48 h of transfection, cells were harvested for western blotting and RT-PCR analyses. For stable transfection, LNCaP cells were first transfected with either flag-tagged RANKL- or neo-control-plasmid cDNA (Sigma-Aldrich, St. Louis, Mo.) in a 6-well plate for 48 h, and the cells were trypsinized and seeded into a 15 cm dish. The cells contain the transfected vector were selected in 400 μg/ml of G418 until individual colonies that contain transfected construct were formed. LNCaP cell colonies expressing flag-tagged RANKL or neo plasmid were picked and the cells were amplified from a 48-well plate to a 10 cm dish in the presence of G418. Stable clones were maintained in 200 μg/ml of G418 and routinely checked for flag-RANKL expression by western blot analysis.
Total RNA from cells was isolated using RNeasy Mini Kit (Qiagen, Valencia, Calif.) according to manufacturer's instructions. […]

[3] = tested on: cMet in ARCaPE cells; assay: cMet expression and phosphorylation (Western blot), ARCaPE
[4] = recombinant RANKL 200 and 400, four days

Molecule: osteoprotegerin [OPG]
- induction of cMyc binding to the cMyc site ([1]; exposing to OPG): dampened
- RANKL expression in ARCaPM cells ([2]; 1 ug/ml of OPG): down-regulated
- Vimentin in ARCaPE cells (WB) ([2]; RANKL plus OPG): significantly reduced
- N-cad and Vimentin expression in ARCaPE cells (RT-PCR) ([2]; RANKL plus OPG compared to 300 ng/ml RANKL): slightly decreased
- E-cad expression in ARCaPE cells (RT-PCR, WB) ([2]; RANKL plus OPG compared to RANKL): restore
- RANKL-induced EMT and cadherin switch in ARCaPE cells ([2]; addition of OPG): blocked; also recorded: abolished
- RANKL-induced RANKL expression in ARCaPE cells ([2]; addition of OPG): attenuated
- EMT phenotype of ARCaPM cells (morphology, mesenchymal genes, cadherin switch) ([2]; exposure to OPG (1 μg/ml)): reversed
- RANKL- or HGF-induced cMet expression and phosphorylation in ARCaPE cells ([3]; OPG (vs RANKL) or anti-HGF antibody (vs HGF) treatment): abrogated

B1: RANKL: trimerized recombinant RANKL protein (rRANKL), receptor activator of NF-KB ligand (protein, UniProt O14788 69-317, looked up)
extracellular domain: YFRAQMDPNRISEDGTHCIYRILRLHENADFQDTTLESQDTKLIPDSCRRIKQAFQGAVQKELQHIVGSQHIRAEKAMVDGSWLDLAKRSKLEAQPFAHLTINATDIPSGSHKVSLSSWYHDRGWAKISNMTFSNGKLIVNQDGFYYLYANICFRHHETSGDLATEYLQLMVYVTKTSIKIPSSHTLMKGGSTKYWSGNSEFHFYSINVGGFFKLRSGEEISIEVSNPSLLDPDQDATYFGAFKVRDID
modifications: extracellular domain trimerized
- increase of cMyc binding to the cMyc site ([1]; RANKL-treated LNCaP cells, quantitative real-time PCR): ~11 fold
- E-cadherin expression in ARCaPE cells ([2]; 200 ng/ml recombinant RANKL): down-regulated
- N-cadherin expression in ARCaPE cells ([2]; 200 ng/ml recombinant RANKL): up-regulated
- Snail, vimentin, and RANKL expression in ARCaPE cells ([2]; 200 ng/ml recombinant RANKL): up-regulation
- cell morphology of ARCaPE cells ([2]; 200 ng/ml recombinant RANKL protein, 8-day period): gradually changed their morphology from cobble-stoned clusters to more dispersed and fibroblastic-like appearance
- Vimentin in ARCaPE cells (WB) ([2]; RANKL alone): only slightly increased
- RANKL expression at mRNA and protein levels in ARCaPE cells ([2]; RANKL treatment): up-regulated
- N-cadherin expression in ARCaPE cells (Example 9) [2, 4]: slightly increased
- Snail expression in ARCaPE cells (Example 9) [2, 4]: no effect
- vimentin expression in ARCaPE cells (Example 9) [2, 4]: increases
- E-cadherin expression in ARCaPE cells (Example 9) ([2]; recombinant RANKL 200 and 400, four days, RNA and protein level): decrease
- cMet expression and phosphorylated level of cMet in ARCaPE cells ([3]; exogeneous RANKL or HGF treatment): significantly increased
